Results: US20260008856A1 (BLUEFIN BIOMEDICINE, published 2026)

Experiments:
[1] = target: T1, huIL1RAP ECD recombinant protein (human, UniProt Q9NPH3 21-367); assay: Octet BLI, antibody on Protein A biosensor, recombinant huIL1RAP ECD
T1 construct: also called recombinant human IL1RAP-ECD; recombinant human IL1RAP; not shown: C-terminal histidine tag for purification
Method: Affinity: The affinity of antibodies to various recombinant IL1RAP protein was determined on an Octet Red™ instrument. After loading reagents into a 96-well plate, the Octet Red™ with Protein A-conjugated biosensors was programmed as follows: 30 seconds for baseline #1; 120 seconds to immobilize the antibody; 30 seconds for baseline #2; 300 seconds for association of antibody to recombinant IL1RAP; and 300-600 seconds for dissociation of recombinant IL1RAP from the antibody.

[2] = target: T1, huIL1RAP ECD recombinant protein; assay: affinity for human IL1RAP (Octet); Table 7 prints 1.4 nM for the same antibody
[3] = target: T2, rat IL1RAP (Met1-Val570 plus Myc-DDK) on transfected 293 cells (Rattus norvegicus, UniProt Q63621 21-570); assay: flow cytometry on 293 cells expressing rat IL1RAP (293-puro-ratIL1RAP) vs 293T-puro [cont.]
T2 construct: whole, on cells; also called RR213032
T2 sequence (Q63621 21-570): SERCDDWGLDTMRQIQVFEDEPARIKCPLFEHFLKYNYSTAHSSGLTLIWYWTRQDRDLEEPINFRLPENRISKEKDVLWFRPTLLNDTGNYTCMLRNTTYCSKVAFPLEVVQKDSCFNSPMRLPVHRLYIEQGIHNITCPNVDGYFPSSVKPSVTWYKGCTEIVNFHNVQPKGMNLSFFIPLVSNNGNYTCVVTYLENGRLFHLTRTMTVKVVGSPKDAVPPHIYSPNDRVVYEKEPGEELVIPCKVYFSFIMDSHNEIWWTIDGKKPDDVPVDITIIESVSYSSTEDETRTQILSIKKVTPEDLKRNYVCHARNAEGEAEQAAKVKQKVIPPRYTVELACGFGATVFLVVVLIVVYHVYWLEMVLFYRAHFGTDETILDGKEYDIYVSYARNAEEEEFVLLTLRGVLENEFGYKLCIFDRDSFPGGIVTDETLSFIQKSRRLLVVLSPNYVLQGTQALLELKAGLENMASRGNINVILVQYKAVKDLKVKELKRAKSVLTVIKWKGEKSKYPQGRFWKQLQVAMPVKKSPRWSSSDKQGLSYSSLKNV
Method: (§1) Staining for flow cytometry was performed in 1× cold PBS with 0.5% BSA. Primary antibodies (1 ug/ml) were incubated with live cells on ice for 30 minutes, after a brief wash, cells were incubated with Alexa Fluro® 488-conjugated anti-human IgG secondary antibody @1:1000 (709-546-149, Jackson ImmunoResearch). Acquisition of the data was performed on a MACSQuant® Flow Cytometers (Miltenyi Biotec) and analyzed with FlowJo software.

[4] = target: T3, mouse IL1RAP (Met1-Val570 plus Myc-DDK) on transfected 293 cells (Mus musculus, UniProt Q61730 21-570); assay: flow cytometry on 293 cells expressing mouse IL1RAP (293-puro-mouseIL1RAP) vs 293T-puro [cont.]
T3 construct: whole, on cells; also called MR223729
T3 sequence (Q61730 21-570): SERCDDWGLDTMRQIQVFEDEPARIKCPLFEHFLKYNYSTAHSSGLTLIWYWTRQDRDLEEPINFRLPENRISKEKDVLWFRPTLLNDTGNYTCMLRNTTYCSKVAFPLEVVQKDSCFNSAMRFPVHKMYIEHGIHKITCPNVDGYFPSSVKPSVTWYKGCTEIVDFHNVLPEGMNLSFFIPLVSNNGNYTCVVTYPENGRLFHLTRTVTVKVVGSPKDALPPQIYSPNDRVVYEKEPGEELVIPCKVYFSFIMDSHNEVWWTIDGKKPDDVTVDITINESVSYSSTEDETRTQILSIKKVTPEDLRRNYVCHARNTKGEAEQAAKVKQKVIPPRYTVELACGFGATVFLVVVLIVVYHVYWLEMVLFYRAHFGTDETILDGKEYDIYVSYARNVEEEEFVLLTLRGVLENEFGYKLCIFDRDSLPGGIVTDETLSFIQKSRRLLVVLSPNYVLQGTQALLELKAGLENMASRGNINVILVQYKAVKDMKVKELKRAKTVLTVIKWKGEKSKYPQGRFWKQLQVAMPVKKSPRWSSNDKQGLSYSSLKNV
Method: as §1

[5] = target: T4, human IL1RAP on IL1RAP positive human cell lines (EOL-1, Karpas 299; HEK-Blue reporter cells) (human, UniProt Q9NPH3 21-570); assay: cell-based or functional assay
[6] = target: T4, human IL1RAP on IL1RAP positive human …; assay: cell-based or functional assay; remark: listed apart in the source
[7] = target: T2, rat IL1RAP (Met1-Val570 plus Myc-DDK) …; assay: flow cytometry on 293 cells expressing rat IL1RAP (293-puro-ratIL1RAP) vs 293T-puro
Method: as §1

[8] = target: T3, mouse IL1RAP (Met1-Val570 plus Myc-DDK) …; assay: flow cytometry on 293 cells expressing mouse IL1RAP (293-puro-mouseIL1RAP) vs 293T-puro
Method: as §1

[9] = target: T4, human IL1RAP on IL1RAP positive human …; assay: cell-based or functional assay; remark: listed apart in the source
[10] = target: T4, human IL1RAP on IL1RAP positive human …; assay: cell-based or functional assay; remark: listed apart in the source
[11] = target: T2, rat IL1RAP (Met1-Val570 plus Myc-DDK) …; assay: flow cytometry on 293 cells expressing rat IL1RAP (293-puro-ratIL1RAP) vs 293T-puro; 1 ug/ml antibody, Alexa 488 anti-human IgG secondary
Method: as §1

B1: 32C12_21A4 (antibody, V domains shown)
VH: QVQLVESGGGVVQPGRSLRLSCAASGFTFRNYGIHWVRQAPGKGLEWVAVIWYDGSNKFYADSVKGRFTISRDNSKNTLYLQMNSLRVEDTAVYYCAREEGIAVAPFDYWGQGTLVTVSS
VL: DIQMTQSPSSLSASVGDRVAITCRANQSIASYLNWYQQKPGKAPKLLIYGASSLQNGVPSRFSGSGSRTDFTLTISSLQPEDFATYYCQQSYSTEITFGQGTRLEIK
Kd [1]: 1.4 nM | Kd [2]: 1 nM | binding result [3]: no binding (tested: 1 ug/ml) | binding result [4]: no binding (tested: 1 ug/ml)

B2: 5G8_18A1 (antibody, V domains shown)
VH: QVELQESGPGLVKPSDTLSLTCTVTGGSISTYYWSWIRQPPGKGLEWIGYIFYTGTTNYNPSLKSRVTISVDASKNQFSLKLNSVTAADTAVYYCARDGSLDYWGQGALVTVSS
VL: DIQMTQSPSSLSASVGDRVTITCRASQSISNYLNWYQQKPGKAPKLLIFVASLLQSGVPSRFSGSGSGTDFTLTISSLQPEDFATYYCQQSYSTPFTFGPGTKLEIK
EC50, inhibition of signalling by 0.5 ng/ml IL-1beta in HEK-Blue IL-1beta reporter cells (Abs. 620 nM) [5]: 0.58 nM | EC50, inhibition of signalling by 0.5 ng/ml IL-1a (IL-1alpha) in the HEK-Blue IL-1 reporter assay (Abs. 620 nM) [6]: 0.83 nM | Kd [1]: 0.4 nM | binding result [3]: no binding (tested: 1 ug/ml) | binding result [4]: no binding (tested: 1 ug/ml)

B3: 16H2_17D2 (antibody, V domains shown)
VH: QVQLVESGGGVVQPGGSLRLSCAASGFTFSSHGMHWVRQAPGKGLEWVAVIWYDGSNKFYTDSVQGRFTISRDNSKNTLNLQMNSLRAEDTAVYYCAREGLRAGYYFDFWGQGTLVTVSS
VL: DIQMTQSPSSLSASVGDRVTITCRASQRISFYSNWYQQKPGKAPKLLIYAASSLQSGVPSRFSGSGSGTDFTLTISSLQPEDFATYFCQQSHSTPLTFGGGTKLEIK
EC50, inhibition of signalling by 0.5 ng/ml IL-1beta in HEK-Blue IL-1beta reporter cells (Abs. 620 nM) [5]: 0.1 nM | EC50, inhibition of signalling by 0.5 ng/ml IL-1a (IL-1alpha) in the HEK-Blue IL-1 reporter assay (Abs. 620 nM) [6]: 0.09 nM | Kd [1]: 0.2 nM | binding result [7]: no binding (tested: 1 ug/ml) | binding result [8]: no binding (tested: 1 ug/ml)

B4: 36A10_21B6 (antibody, V domains shown)
VH: QGQVVESGGGVVQPGRSLRLSCAASGFTFSSYTLHWVRQAPGKGLEWVAVIWYDGSNKYYVDSVKGRFTISRDNSKNTLYLQMNSLRAEDTAVYYCAREYGSGSYYNVYYGMDVWGQGTTVTLSS
VL: DIVMTQSPLSLPVTPGEPASISCRSSQSLLHSNGYNYLDWYLQKPGQSPHLLIYLASNRASGVPDRFSGSGSGTDFTLKISRVEAEDVGFYYCMQTLQIPLTFGGGTKVEIK
EC50, inhibition of signalling by 0.5 ng/ml IL-1beta in HEK-Blue IL-1beta reporter cells (Abs. 620 nm); row printed as 36A10_21C2 [5]: 0.29 nM | EC50, inhibition of signalling by 0.5 ng/ml IL-1a (IL-1alpha) in the HEK-Blue IL-1 reporter assay (Abs. 620 nm); row printed as 36A10_21C2 [6]: 0.66 nM | EC50, inhibition of signalling by 0.5 ng/ml IL-33 in HEK-Blue IL-33 reporter cells (Abs. 620 nM) [9]: 1.76 nM | Kd [1]: 0.4 nM | binding result [3]: no binding (tested: 1 ug/ml) | binding result [4]: no binding (tested: 1 ug/ml)

B5: 37E10_15B5 (antibody, V domains shown)
VH: QVQLVESGGGVVQPGRSLRLSCAASGFTFRSHGMHWVRQAPGKGLEWVAVIWYDGSSEYYADSVKGRFTISRDNSKNTLYLQMNSLRAEDTAVYYCARENVYGSGWFFDYWGQGTLVTVSS
VL: EIVMTQSPATLSVSPGERASLSCRASQSVGSNLAWYQQRPGQAPRLLIFGASTRATGIPARFSGSRSGTEFTLTISSLQSEDFALYYCQQYNNWPPWTFGQGTKLEIK
notes: also called BFB759
EC50 against IL-1alpha signaling, IL-1 reporter assay [10]: < 1 nM | EC50 against IL-1beta signaling, IL-1 reporter assay [10]: < 1 nM | EC50, inhibition of signalling by 0.5 ng/ml IL-1beta in HEK-Blue IL-1beta reporter cells (Abs. 620 nM) [5]: 0.15 nM | EC50, inhibition of signalling by 0.5 ng/ml IL-1a (IL-1alpha) in the HEK-Blue IL-1 reporter assay (Abs. 620 nM) [6]: 0.19 nM | EC50, inhibition of signalling by 0.5 ng/ml IL-33 in HEK-Blue IL-33 reporter cells (Abs. 620 nm); the curve levels off at about 0.4, not at 0 [9]: 0.32 nM | Kd [1]: 0.3 nM | binding result [3]: no binding (tested: 1 ug/ml) | binding result [4]: no binding (tested: 1 ug/ml)

B6: 44E5_15C5 (antibody, V domains shown)
VH: QVQLVESGGGVVQPGRSLRLSCAASGFTFRSHGMHWVRQAPGKGLEWVAVIWYDGSSDYYADSVKGRFTISRDNSKNTLFLQMNSLSAEDTAVYYCARENVYGSGWFFDYWGQGTLVTVSS
VL: EIVMTQSPATLSVSPGERASLSCRASQSVGSNLAWYQQKPGQAPRLLIFGASTRATGIPARFSGSRSGTEFTLTISSLQSEDFALYYCQQYNNWPPWTFGQGTKLEIK
EC50 against IL-1alpha signaling, IL-1 reporter assay [10]: < 1 nM | EC50 against IL-1beta signaling, IL-1 reporter assay [10]: < 1 nM | EC50, inhibition of signalling by 0.5 ng/ml IL-1beta in HEK-Blue IL-1beta reporter cells (Abs. 620 nM) [5]: 0.17 nM | EC50, inhibition of signalling by 0.5 ng/ml IL-1a (IL-1alpha) in the HEK-Blue IL-1 reporter assay (Abs. 620 nM) [6]: 0.18 nM | EC50, inhibition of signalling by 0.5 ng/ml IL-33 in HEK-Blue IL-33 reporter cells (Abs. 620 nm); the curve levels off at about 0.4, not at 0 [9]: 0.44 nM | Kd [1]: 0.4 nM | binding result [3]: no binding (tested: 1 ug/ml) | binding result [4]: no binding (tested: 1 ug/ml)

B7: 24G3_17C5 (antibody, V domains shown)
VH: EVQLLESGGGLVQRGGSLRLSCAASGFTFSSYAMSWVRQAPGKGLEWVSSISGSGDSTNYADSVKGRFTISRDNSKNTLHLQMNSLRAEDTAVYYCVRDYYYGMDVWGHGTTVTVSS
VL: EIVLTQSPATLSLSPGERATLSCRASQSVNSYLAWYQQKPGQAPRLLIYDASNRATGIPARFSGSGSGTDFTLTISSLEPEDFAVYYCQQRSYWPITFGQGTRLEIK
notes: Recombinant human antibody
Kd [1]: 37 nM | binding result [11]: binds

B8: 38E10_21C3 (antibody, V domains shown)
VH: EVQLLESGGGLVQPGGSLRLSCAASGFTFSNYAMTWVRQAPGKGLEWVSSISISRAGTYYADSVKGRFTISRDNSKNTLNLQMNSLRAEDTAEYYCAREYYYGMDVWGQGTTVTVSS
VL: EIVLTQSPATLSLSPGERATLSCRASQSVSSYLAWYQQKPGQTPRLLIYDASNRATGIPARFSGSGSGTDFTLTISSLETEDFAVYYCQQLINWPLTFGGGTKLEIK
notes: Recombinant human antibody
Kd [1]: 2 nM | binding result [7]: no binding (tested: 1 ug/ml) | binding result [8]: no binding (tested: 1 ug/ml)

B9: 37D11_21C2 (antibody, V domains shown)
VH: QVQIKESGPGLVKPSETLSLTCAVSGFSFSSGYYWGWIRQPPGKGLEWLGSFFHNGNTYYNPSLRSRVTISVDTSKNHFSLKLTSVTAADTAVYYCAGFGDLPHYHYYVMDVWGQGTTVTVSS
VL: EIVLTQSPATLSLSPGERATLSCRASQSVSSYLAWYQQKPGQAPRLLIYDASNRAIGIPARFSGSGSGTDFTLTISSLEPEDFAVYYCQQRSNWPPYTFGQGTKLEIK
Kd [1]: 13 nM | binding result [3]: no binding (tested: 1 ug/ml) | binding result [4]: no binding (tested: 1 ug/ml)

B10: 10C8_15A1 (antibody, V domains shown)
VH: QVQLVESGGGVVQPGRSLRISCAASGFTFRSYGMHWVRQAPGKGLEWVAIIWHDESYKYYVDSVKGRFTISRDNSKNTLYLQMNSLRAEDTAVYYCARGDYYGSGSYYDAFDIWGQGTMVTVSS
VL: DIQMTQSPSSLSASVGDRVIITCRASQGISNYLAWFQQKPGKCPNLLIYAASTLRSGVPSRFSGSGSGTDFTLTISSLQPEDVATYYCQKYNSAPYTFGQGTKVEIK
Kd [1]: 30 nM | binding result [3]: no binding (tested: 1 ug/ml) | binding result [4]: no binding (tested: 1 ug/ml)
